Consider one substance from article doi:10.1101/2024.08.01.606258.

The target in the experiment is avGFP [GFP: P42212]. Put plainly: SEC.

A word on the stoichiometry N: it is a count of units in the complex or per binding partner.

Regarding “avGFP (from UniProt P42212 1-237) (natural protein)”, the stoichiometry N came to 2.
